± gives the uncertainty stated by the source.
Experiment: abundance fitness (aPCA) (normalised: wild type 0, dead -1); higher = more abundant; growth selection in yeast, the domain comes from the species named
Conditions: Homo sapiens

| Substance | abundance fitness |
| --- | --- |
| Scaffold attachment factor B1 N47D, Q15424 | -0.167 ± 0.085 |
| Scaffold attachment factor B1 R60G, Q15424 | -0.464 ± 0.075 |
| Scaffold attachment factor B1 G52M, Q15424 | -1.21 ± 0.077 |
| Scaffold attachment factor B1 D67T, Q15424 | -0.237 ± 0.071 |
| Scaffold attachment factor B1 D73L, Q15424 | -0.245 ± 0.059 |
| Scaffold attachment factor B1 I77V, Q15424 | -0.163 ± 0.066 |
| Scaffold attachment factor B1 K62E, Q15424 | -0.287 ± 0.053 |
| Scaffold attachment factor B1 V56C, Q15424 | -0.177 ± 0.095 |
| Scaffold attachment factor B1 E42T, Q15424 | -0.776 ± 0.076 |
| Scaffold attachment factor B1 L31A, Q15424 | -0.333 ± 0.069 |
| Scaffold attachment factor B1 K63R, Q15424 | -0.144 ± 0.055 |
| Scaffold attachment factor B1 S51Y, Q15424 | -0.472 ± 0.11 |
| Scaffold attachment factor B1 T28W, Q15424 | -0.455 ± 0.088 |
| Scaffold attachment factor B1 S50I, Q15424 | -0.292 ± 0.096 |
| Scaffold attachment factor B1 R35M, Q15424 | -0.147 ± 0.072 |
| Scaffold attachment factor B1 I65W, Q15424 | -0.457 ± 0.051 |
| Scaffold attachment factor B1 N71F, Q15424 | -0.338 ± 0.068 |
| Scaffold attachment factor B1 T28D, Q15424 | -0.257 ± 0.1 |
| Scaffold attachment factor B1 D67E, Q15424 | -0.152 ± 0.089 |
| Scaffold attachment factor B1 R44E, Q15424 | -0.121 ± 0.091 |
| Scaffold attachment factor B1 L61D, Q15424 | -0.615 ± 0.086 |
| Scaffold attachment factor B1 I77C, Q15424 | -0.187 ± 0.061 |

| Substance | abundance fitness |
| --- | --- |
| Scaffold attachment factor B1 S51E, Q15424 | -0.247 ± 0.078 |
| Scaffold attachment factor B1 L31W, Q15424 | -0.628 ± 0.052 |
| Scaffold attachment factor B1 S55M, Q15424 | -0.12 ± 0.072 |
| Scaffold attachment factor B1 V56R, Q15424 | -0.121 ± 0.054 |
| Scaffold attachment factor B1 K62N, Q15424 | -0.231 ± 0.096 |
| Scaffold attachment factor B1 L43P, Q15424 | -1.1 ± 0.11 |
| Scaffold attachment factor B1 G27R, Q15424 | -0.327 ± 0.052 |
| Scaffold attachment factor B1 P72L, Q15424 | -0.14 ± 0.048 |
| Scaffold attachment factor B1 D49N, Q15424 | -0.14 ± 0.061 |
| Scaffold attachment factor B1 G69W, Q15424 | -0.658 ± 0.067 |
| Scaffold attachment factor B1 L34F, Q15424 | -0.212 ± 0.06 |
| Scaffold attachment factor B1 T28R, Q15424 | -0.301 ± 0.055 |
| Scaffold attachment factor B1 G69T, Q15424 | -0.472 ± 0.077 |
| Scaffold attachment factor B1 V36P, Q15424 | -0.281 ± 0.087 |
| Scaffold attachment factor B1 G69Y, Q15424 | -0.819 ± 0.19 |
| Scaffold attachment factor B1 A64F, Q15424 | -0.317 ± 0.089 |
| Scaffold attachment factor B1 P72A, Q15424 | -0.187 ± 0.07 |
| Scaffold attachment factor B1 K62D, Q15424 | -0.403 ± 0.089 |
| Scaffold attachment factor B1 D73P, Q15424 | -0.278 ± 0.068 |
| Scaffold attachment factor B1 I37R, Q15424 | -0.04 ± 0.054 |
| Scaffold attachment factor B1 K63H, Q15424 | -0.541 ± 0.1 |
| Scaffold attachment factor B1 L34W, Q15424 | -0.375 ± 0.075 |

| Substance | abundance fitness |
| --- | --- |
| Scaffold attachment factor B1 G69N, Q15424 | -0.248 ± 0.099 |
| Scaffold attachment factor B1 P72H, Q15424 | -0.149 ± 0.073 |
| Scaffold attachment factor B1 V36F, Q15424 | -0.279 ± 0.084 |
| Scaffold attachment factor B1 D67G, Q15424 | -0.131 ± 0.046 |
| Scaffold attachment factor B1 E74H, Q15424 | -0.608 ± 0.12 |
| Scaffold attachment factor B1 S51A, Q15424 | -0.299 ± 0.071 |
| Scaffold attachment factor B1 P72N, Q15424 | -0.374 ± 0.11 |
| Scaffold attachment factor B1 E59L, Q15424 | -0.15 ± 0.052 |
| Scaffold attachment factor B1 R60F, Q15424 | -0.801 ± 0.053 |
| Scaffold attachment factor B1 S32P, Q15424 | -0.514 ± 0.083 |
| Scaffold attachment factor B1 G52R, Q15424 | -1.18 ± 0.054 |
| Scaffold attachment factor B1 E80N, Q15424 | -0.513 ± 0.43 |
| Scaffold attachment factor B1 S51L, Q15424 | -0.197 ± 0.061 |
| Scaffold attachment factor B1 K54D, Q15424 | -0.329 ± 0.075 |
| Scaffold attachment factor B1 S79V, Q15424 | -0.131 ± 0.06 |
| Scaffold attachment factor B1 E59W, Q15424 | -0.408 ± 0.11 |
| Scaffold attachment factor B1 K54C, Q15424 | -0.361 ± 0.063 |
| Scaffold attachment factor B1 V36G, Q15424 | -0.348 ± 0.057 |
| Scaffold attachment factor B1 S55T, Q15424 | -0.199 ± 0.071 |
| Scaffold attachment factor B1 T28G, Q15424 | -0.337 ± 0.055 |
| Scaffold attachment factor B1 R35F, Q15424 | -0.59 ± 0.082 |
| Scaffold attachment factor B1 N47I, Q15424 | -0.822 ± 0.09 |

| Substance | abundance fitness |
| --- | --- |
| Scaffold attachment factor B1 R35D, Q15424 | -0.12 ± 0.08 |
| Scaffold attachment factor B1 L61E, Q15424 | -0.484 ± 0.06 |
| Scaffold attachment factor B1 L43S, Q15424 | -0.653 ± 0.059 |
| Scaffold attachment factor B1 K54Y, Q15424 | -0.157 ± 0.059 |
| Scaffold attachment factor B1 G69V, Q15424 | -0.454 ± 0.079 |
| Scaffold attachment factor B1 S32N, Q15424 | -0.59 ± 0.1 |
| Scaffold attachment factor B1 G70F, Q15424 | -0.406 ± 0.083 |
| Scaffold attachment factor B1 G70Q, Q15424 | -0.205 ± 0.068 |
| Scaffold attachment factor B1 M58C, Q15424 | -0.289 ± 0.083 |
| Scaffold attachment factor B1 G27F, Q15424 | -0.246 ± 0.12 |
| Scaffold attachment factor B1 N53M, Q15424 | -0.376 ± 0.063 |
| Scaffold attachment factor B1 M58R, Q15424 | -0.205 ± 0.059 |
| Scaffold attachment factor B1 E68S, Q15424 | -0.236 ± 0.052 |
| Scaffold attachment factor B1 R35P, Q15424 | -0.288 ± 0.081 |
| Scaffold attachment factor B1 T28Y, Q15424 | -0.073 ± 0.068 |
| Scaffold attachment factor B1 S55E, Q15424 | -0.092 ± 0.069 |
| Scaffold attachment factor B1 R40P, Q15424 | -0.763 ± 0.074 |
| Scaffold attachment factor B1 S51F, Q15424 | -0.389 ± 0.085 |
| Scaffold attachment factor B1 E42P, Q15424 | -0.976 ± 0.18 |
| Scaffold attachment factor B1 V48R, Q15424 | -0.078 ± 0.057 |
| Scaffold attachment factor B1 P72V, Q15424 | -0.116 ± 0.053 |
| Scaffold attachment factor B1 D73K, Q15424 | -0.652 ± 0.12 |

| Substance | abundance fitness |
| --- | --- |
| Scaffold attachment factor B1 S79M, Q15424 | -0.136 ± 0.063 |
| Scaffold attachment factor B1 T26Q, Q15424 | -1.01 ± 0.34 |
| Scaffold attachment factor B1 D33P, Q15424 | -0.726 ± 0.069 |
| Scaffold attachment factor B1 V36Y, Q15424 | -0.366 ± 0.072 |
| Scaffold attachment factor B1 S79H, Q15424 | -0.266 ± 0.086 |
| Scaffold attachment factor B1 I77S, Q15424 | -0.08 ± 0.051 |
| Scaffold attachment factor B1 V36N, Q15424 | -0.275 ± 0.064 |
| Scaffold attachment factor B1 A64M, Q15424 | -0.416 ± 0.1 |
| Scaffold attachment factor B1 R29K, Q15424 | -0.086 ± 0.083 |
| Scaffold attachment factor B1 N71C, Q15424 | -0.207 ± 0.07 |
| Scaffold attachment factor B1 L34Q, Q15424 | -0.527 ± 0.087 |
| Scaffold attachment factor B1 N71H, Q15424 | -0.309 ± 0.1 |
| Scaffold attachment factor B1 G52K, Q15424 | -1.35 ± 0.18 |
| Scaffold attachment factor B1 R44V, Q15424 | -0.092 ± 0.054 |
| Scaffold attachment factor B1 R29P, Q15424 | -0.364 ± 0.063 |
| Scaffold attachment factor B1 L61I, Q15424 | -0.614 ± 0.12 |
| Scaffold attachment factor B1 K54L, Q15424 | -0.28 ± 0.048 |
| Scaffold attachment factor B1 I75N, Q15424 | -0.219 ± 0.058 |
| Scaffold attachment factor B1 R44F, Q15424 | -0.27 ± 0.081 |
| Scaffold attachment factor B1 R35S, Q15424 | -0.136 ± 0.068 |
| Scaffold attachment factor B1 E68V, Q15424 | -0.265 ± 0.053 |
| Scaffold attachment factor B1 R30K, Q15424 | -0.037 ± 0.066 |

Reference: the Human Domainome abundance scans (Beltran et al. 2025)
